From the array DNA melting data of Ke et al.

assay: melting temperature; melt of duplexes; conditions: sodium 0.0675 M; strand 1 µM

Substance	Tm
CGACGTGCGCCATGTGCTG+CAGCACATCGGGCACGTCG ((((((((.(.((((((((+)))))))).).))))))))	51.2 °C
CGACGTGCTTGATGTGCTG+CAGCACATGGGGCACGTCG ((((((((...((((((((+))))))))...))))))))	50.7 °C
CGACGTGCATAATGTGCTG+CAGCACATCACGCACGTCG ((((((((.(.((((((((+)))))))).).))))))))	47.6 °C
CGACGTGCAAGATGTGCTG+CAGCACATATAGCACGTCG ((((((((.(.((((((((+)))))))).).))))))))	52 °C
CGACGTGCTAAATGTGCTG+CAGCACATCAGGCACGTCG ((((((((...((((((((+))))))))...))))))))	50.9 °C
CGACGTGCACGATGTGCTG+CAGCACATGCCGCACGTCG ((((((((...((((((((+))))))))...))))))))	44.4 °C
CGACGTGCCTGATGTGCTG+CAGCACATACAGCACGTCG ((((((((...((((((((+))))))))...))))))))	50.8 °C
CGACGTGCGCTATGTGCTG+CAGCACATGTCGCACGTCG (((((((((..((((((((+))))))))..)))))))))	54.8 °C
CGACGTGCGCCATGTGCTG+CAGCACATGGAGCACGTCG ((((((((.((((((((((+)))))))))).))))))))	62.3 °C
CGACGTGCTTGATGTGCTG+CAGCACATCGCGCACGTCG ((((((((..(((((((((+)))))))))..))))))))	54.3 °C
CGACGTGCCCGATGTGCTG+CAGCACATCTCGCACGTCG ((((((((..(((((((((+)))))))))..))))))))	51.6 °C
CGACGTGCGATATGTGCTG+CAGCACATATAGCACGTCG ((((((((.((((((((((+)))))))))).))))))))	57.5 °C
CGACGTGCGTCATGTGCTG+CAGCACATCGAGCACGTCG ((((((((...((((((((+))))))))...))))))))	52.3 °C
CGACGTGCAGCATGTGCTG+CAGCACATGCCGCACGTCG ((((((((.((((((((((+)))))))))).))))))))	59.1 °C
CGACGTGCAAAATGTGCTG+CAGCACATTATGCACGTCG (((((((((.(((((((((+))))))))).)))))))))	55.1 °C
CGACGTGCGGCATGTGCTG+CAGCACATGACGCACGTCG (((((((((.(((((((((+))))))))).)))))))))	64 °C
CGACGTGCATAATGTGCTG+CAGCACATGGGGCACGTCG ((((((((...((((((((+))))))))...))))))))	51.2 °C
CGACGTGCGCCATGTGCTG+CAGCACATAAGGCACGTCG ((((((((...((((((((+))))))))...))))))))	48.6 °C
CGACGTGCACCATGTGCTG+CAGCACATGGCGCACGTCG ((((((((.((((((((((+)))))))))).))))))))	59.2 °C
CGACGTGCCGAATGTGCTG+CAGCACATCTAGCACGTCG ((((((((...((((((((+))))))))...))))))))	50.1 °C
CGACGTGCTACATGTGCTG+CAGCACATGCTGCACGTCG ((((((((..(((((((((+)))))))))..))))))))	52.8 °C
CGACGTGCGTGATGTGCTG+CAGCACATCGTGCACGTCG ((((((((..(((((((((+)))))))))..))))))))	54.5 °C
CGACGTGCCGCATGTGCTG+CAGCACATTCAGCACGTCG ((((((((.(.((((((((+)))))))).).))))))))	48.9 °C
CGACGTGCAAGATGTGCTG+CAGCACATAGCGCACGTCG ((((((((...((((((((+))))))))...))))))))	49.8 °C
CGACGTGCACAATGTGCTG+CAGCACATCTAGCACGTCG ((((((((...((((((((+))))))))...))))))))	45.9 °C
CGACGTGCGCCATGTGCTG+CAGCACATCAGGCACGTCG ((((((((...((((((((+))))))))...))))))))	47.8 °C
CGACGTGCGAAATGTGCTG+CAGCACATGGGGCACGTCG ((((((((...((((((((+))))))))...))))))))	52 °C
CGACGTGCAGCATGTGCTG+CAGCACATGGGGCACGTCG ((((((((..(((((((((+)))))))))..))))))))	56.9 °C
